According to article PMC3268818:

Biological target: BclXL_FL, full-length human BclXL (residues 1–233) (human), Q07817
Assay: ITC

Sequence of BclXL_FL, full-length human BclXL (residues 1–233) (human), Q07817 (Q07817 whole entry, the tested form may be a part): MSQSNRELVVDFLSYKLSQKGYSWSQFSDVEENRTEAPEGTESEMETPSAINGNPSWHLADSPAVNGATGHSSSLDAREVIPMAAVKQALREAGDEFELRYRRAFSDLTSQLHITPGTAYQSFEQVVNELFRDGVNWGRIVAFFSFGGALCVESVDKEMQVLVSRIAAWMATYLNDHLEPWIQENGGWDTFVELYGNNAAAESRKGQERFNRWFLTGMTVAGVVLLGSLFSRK

B1: Bid_BH3 peptide (20-mer spanning the BH3 domain of human Bid) (peptide)
chain: DIIRNIARHLAQVGDSMDRS
modifications: not checked
B1 gave a Kd of 9.97 µM and a dH of -18.7 kcal/mol.
